According to PMC2914791, “Trichomonas Transmembrane Cyclases Result from Massive Gene Duplication and Concomitant Development of Pseudogenes” (PLoS Neglected Tropical Diseases, 2010):

B1: group A cyclase (TVAG_456550), Trichomonas TMAC cyclase domain (Trichomonas vaginalis G3) (protein)
chain: TILFLDVVEFTPWCGSHDAQYVMRMLNIMFKEFDVITNAHKTMTKIKCIGDCYMAAGGIFDEVNQPPVHAKEVVDFGCKVIKKLLEIDEQENEKLRIRVGINTGGPIVAGVIGTEKPTFEILGPAINIAHEME
B2: group B cyclase (TVAG_013980), Trichomonas TMAC cyclase domain (Trichomonas vaginalis G3) (protein)
chain: TIFFVDIVKFSNYAAALSPSEIMSNLSLVFSTFDKIVVKYPTILKIKLIGDVYMAAAGIFSDPQMNPSKPAEESVNCCLDIQKVMEQINVKLSAGLEVRIGVNTGGPLIGGVLGTDKPTFDIIGDPINVASRLQ

Substrate: Nc1ncnc2c1ncn2[C@@H]1O[C@H](COP(=O)(O)OP(=O)(O)OP(=O)(O)O)[C@@H](O)[C@H]1O
Test: cAMP direct immunoassay, colorimetric
Type: biochemical, Trichomonas vaginalis
Conditions: 4 µg GST-fusion protein; 0.2 mM GTP present in cAMP assay

Protein	Km [µM]
B1	520 ± 10
B2	710 ± 10
